Laboratory results as given in patent publication US20250388704A1 (Xencor, published 2025).
Numbering of substitutions follows the chain as printed.

Tests used:
[1] = target: T1, human PSMA on the surface of prostate cancer cell lines (C42B / C42B-NLR, 22Rv1 / 22Rv1-NLR, PSMA-transfected … (human, UniProt Q04609 1-750)); experiment: flow cytometry on C42B-NLR (PSMA hi) cells, 30 min at 37 degrees, detection with anti-human-Ig-FITC
T1 construct: whole, on cells; also called Prostate Specific Membrane Antigen

[2] = target: T2, CD28 antigen used for the affinity determinations (human, UniProt P10747 19-152, limits assumed); experiment: Octet (BLI), apparent dissociation constant (KDapp) of the bivalent mAb for CD28
T2 construct: Octet/BLI is described only for the bivalent mAbs

[3] = target: T2, CD28 antigen used for the affinity …; experiment: CD28 binding affinity of the scFv arm (monovalent, scFv in 1+1 Fab-scFv-Fc bsAb, FIG. 20); method not stated
[4] = target: T3, human CD28 on the surface of human PBMCs / T cells (human, UniProt P10747 19-220); experiment: flow cytometry on human PBMCs, 1 h at 4 C, detected with Alexa Fluor 647 anti-human IgG Fc secondary
T3 construct: whole, on cells; Endogenous CD28 on human PBMCs (flow cytometry) and on T cells (functional assays); also called cell-surface CD28
Description: Binding of the phage-derived bivalent mAbs to cell-surface CD28 was investigated.

[5] = target: T1, human PSMA on the surface of prostate …; experiment: flow cytometry on 22Rv1-NLR (PSMA med) cells, 30 min at 37 degrees, detection with anti-human-Ig-FITC
[6] = target: T1, human PSMA on the surface of prostate …; experiment: binding to C4-2B (C42B, PSMA^hi) cells, MFI against concentration, least squares fit
[7] = target: T2, CD28 antigen used for the affinity …; experiment: CD28 binding affinity of the scFv arm, told in a figure legend; method not stated
[8] = target: T2, CD28 antigen used for the affinity …; experiment: CD28 binding affinity of the scFv arm; method not stated; assigned to XENP40470 by elimination
[9] = target: T2, CD28 antigen used for the affinity …; experiment: CD28 binding affinity of the scFv arm; method not stated

B1: PSMA x CD28 bsAb with A11 PSMA binding domain and 1A7_H1_L1.71 CD28 binding domain (Platform X) (bispecific antibody)
heavy: QVQLQESGGDVVQPGRSLRLSCAASGFSFSGYGLHWVRQAPGRGLEWVTLISYDGSNKYYADSVKGRFTISRDNSKNTLYLQMNSLRAEDTAVYYCAKTTVSDPYYYGMDVWGQGTTVTVSSASTKGPSVFPLAPSSKSTSGGTAALGCLVKDYFPEPVTVSWNSGALTSGVHTFPAVLQSSGLYSLSSVVTVPSSSLGTQTYICNVNHKPSDTKVDKKVEPKSCDKTHTCPPCPAPPVAGPSVFLFPPKPKDTLMISRTPEVTCVVVDVKHEDPEVKFNWYVDGVEVHNAKTKPREEEYNSTYRVVSVLTVLHQDWLNGKEYKCKVSNKALPAPIEKTISKAKGQPREPQVYTLPPSREEMTKNQVSLTCDVSGFYPSDIAVEWESDGQPENNYKTTPPVLDSDGSFFLYSKLTVDKSRWEQGDVFSCSVMHEALHNHYTQKSLSLSPGK
scFv-Fc: not shown
light: SYELTQPPSVSVAPGQTARITCGGNNIGSKSVHWYQQKPGQAPVLVVYDDSDRPSGIPERFSGTNSGNTATLTISRAEAGDEADYYCQVWDSSSDHVVFGGGTKLTVLGQPKAAPSVTLFPPSSEELQANKATLVCLISDFYPGAVTVAWKADSSPVKAGVETTTPSKQSNNKYAASSYLSLTPEQWKSHRSYSCQVTHEGSTVEKTVAPTECS
Question: Does B1 bind [1]?
Answer: binds

B2: XENP38938 PSMA (F07) x CD28 (180nM) (bispecific antibody)
heavy: not shown
scFv-Fc: not shown
light: B1 light with T64S, A77V, S94T
notes: copies: 1 + 1 + 1
Question: Does B2 bind [1]?
Answer: binds

B3: XENP28428 (antibody, V domains shown)
VH: EVQLLESGGGLVQPGGSLRLSCAASGFTFSSYAMSWVRQAPGKGLEWVSTISGSGDSTYYADSVKGRFTISRDNSKNTLYLQMNSLRAEDTAVYYCAKSGPGLRQVGFDYWGQGTLVTVSS
VL: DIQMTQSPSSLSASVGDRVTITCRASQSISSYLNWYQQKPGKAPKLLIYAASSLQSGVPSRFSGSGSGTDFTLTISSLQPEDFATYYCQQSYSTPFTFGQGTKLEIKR
notes: Bivalent IgG1 mAb with Fc gamma R ablation variants, made in HEK293E; also called anti-CD28 mAb based on clone 1A7; parental anti-CD28 mAb 1A7; copies: 2 + 2
Question: With B3 as the binder, how does the Kd [2] read?
Answer: 14.5 nM

B4: XENP37902 (bispecific antibody)
heavy: EVQLVQSGAEVKKPGASVKVSCKTSGYTFTEYTIHWVRQAPGQSLEWMGNINPNNGGTTYNQKFQGRVTITVDKSTSTAYMELSSLRSEDTAVYYCAAGWNFDYWGQGTLVTVSSASTKGPSVFPLAPSSKSTSGGTAALGCLVKDYFPEPVTVSWNSGALTSGVHTFPAVLQSSGLYSLSSVVTVPSSSLGTQTYICNVNHKPSDTKVDKKVEPKSCDKTHTCPPCPAPPVAGPSVFLFPPKPKDTLMISRTPEVTCVVVDVKHEDPEVKFNWYVDGVEVHNAKTKPREEEYNSTYRVVSVLTVLHQDWLNGKEYKCKVSNKALPAPIEKTISKAKGQPREPQVYTLPPSREEMTKNQVSLTCDVSGFYPSDIAVEWESDGQPENNYKTTPPVLDSDGSFFLYSKLTVDKSRWEQGDVFSCSVMHEALHNHYTQKSLSLSPGK
scFv-Fc: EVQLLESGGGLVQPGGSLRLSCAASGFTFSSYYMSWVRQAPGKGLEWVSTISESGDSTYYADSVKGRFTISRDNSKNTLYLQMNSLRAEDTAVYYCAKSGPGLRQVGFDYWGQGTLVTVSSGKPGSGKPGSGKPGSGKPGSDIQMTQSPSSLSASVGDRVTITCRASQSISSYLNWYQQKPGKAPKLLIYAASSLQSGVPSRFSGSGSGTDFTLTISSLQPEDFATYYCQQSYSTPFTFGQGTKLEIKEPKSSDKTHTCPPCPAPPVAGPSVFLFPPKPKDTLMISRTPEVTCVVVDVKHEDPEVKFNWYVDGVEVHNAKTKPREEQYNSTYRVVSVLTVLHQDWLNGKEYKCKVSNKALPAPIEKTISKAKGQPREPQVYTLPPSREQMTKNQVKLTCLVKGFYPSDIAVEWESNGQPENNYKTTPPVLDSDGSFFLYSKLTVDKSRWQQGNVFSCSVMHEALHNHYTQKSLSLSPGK
light: DIVMTQSPDSLAVSLGERATLSCRASQDVGTAVDWYQQKPDQSPKLLIYWASTRHTGVPDRFTGSGSGTDFTLTISSLQAEDVAVYFCQQYNSYPLTFGAGTKVEIKRTVAAPSVFIFPPSDEQLKSGTASVVCLLNNFYPREAKVQWKVDNALQSGNSQESVTEQDSKDSTYSLSSTLTLSKADYEKHKVYACEVTHQGLSSPVTKSFNRGEC
notes: 1+1 Fab-scFv-Fc format; also called prototype PSMA x CD28 bsAb; 1A7_H1.14_L1
Question: For B4, which Kd [3] is on record?
Answer: 230 nM

B5: XENP37903 (bispecific antibody)
heavy: B4 heavy
scFv-Fc: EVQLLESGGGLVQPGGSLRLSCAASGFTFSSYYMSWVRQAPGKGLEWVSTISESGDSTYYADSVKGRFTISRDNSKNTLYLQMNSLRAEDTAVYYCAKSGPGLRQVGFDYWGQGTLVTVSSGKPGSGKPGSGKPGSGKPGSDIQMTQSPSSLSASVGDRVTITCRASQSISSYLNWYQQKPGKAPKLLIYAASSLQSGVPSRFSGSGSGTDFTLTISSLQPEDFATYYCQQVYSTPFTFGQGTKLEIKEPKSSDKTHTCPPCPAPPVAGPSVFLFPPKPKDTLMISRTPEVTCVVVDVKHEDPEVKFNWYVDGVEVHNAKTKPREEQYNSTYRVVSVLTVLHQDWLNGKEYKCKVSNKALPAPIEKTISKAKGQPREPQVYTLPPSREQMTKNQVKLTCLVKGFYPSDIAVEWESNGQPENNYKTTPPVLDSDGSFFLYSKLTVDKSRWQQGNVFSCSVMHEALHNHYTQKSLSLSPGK
light: B4 light
notes: 1+1 Fab-scFv-Fc format; also called prototype PSMA x CD28 bsAb; 1A7_H1.14_L1.71
Question: How did the Kd [3] turn out when B5 was run?
Answer: 37 nM

B6: XENP27181 (antibody, V domains shown)
VH: QVQLQESGPGLVKPSETLSLTCAVSGFSLTSYGVHWIRQPPGKGLEWLGVIWPGGGTNFNSALMSRLTISEDTSKNQVSLKLSSVTAADTAVYYCARDRAYGNYLYAMDYWGQGTLVTVSS
VL: DIQMTQSPSSLSASVGDRVTITCRASESVEYYVTSLMQWYQQKPGKAPKLLIYAASNVDSGVPSRFSGSGSGTDFTLTISSLQPEDIATYYCQQSRKVPFTFGGGTKVEIKR
notes: Bivalent anti-CD28 mAb; also called HuTN228; prior art anti-CD28 mAb HuTN228; copies: 2 + 2
Question: Does B6 bind [4]?
Answer: binds

B7: XENP38934 PSMA (F02) x CD28 (180nM) (bispecific antibody)
heavy: EVQLLESGPGLVKPSETLSLTCTVSGGSIISYYWSWIRQPAGKGLEWIGRIYSSGSTNYNPSLKSRVTMSVDTSKNQFSLKLSSVTAADTAVYYCAKVGVWPGAFDIWGQGTMVTVSSASTKGPSVFPLAPSSKSTSGGTAALGCLVKDYFPEPVTVSWNSGALTSGVHTFPAVLQSSGLYSLSSVVTVPSSSLGTQTYICNVNHKPSDTKVDKKVEPKSCDKTHTCPPCPAPPVAGPSVFLFPPKPKDTLMISRTPEVTCVVVDVKHEDPEVKFNWYVDGVEVHNAKTKPREEEYNSTYRVVSVLTVLHQDWLNGKEYKCKVSNKALPAPIEKTISKAKGQPREPQVYTLPPSREEMTKNQVSLTCDVSGFYPSDIAVEWESDGQPENNYKTTPPVLDSDGSFFLYSKLTVDKSRWEQGDVFSCSVMHEALHNHYTQKSLSLSPGK
scFv-Fc: not shown
light: not shown
notes: copies: 1 + 1 + 1
Question: Does B7 bind [1]?
Answer: binds

B8: PSMA x CD28 bsAb with D01v2 PSMA binding domain and 1A7_H1_L1.71 CD28 binding domain (Platform X) (bispecific antibody)
heavy: EVQLVESGGDLVQPGGSLRLSCAASGFTFNNYNMNWVRQAPGKGLEWVSHISTSSSNKYYADSVKGRFSISRDIAKNSMYLQMNSLRDEDTAVYYCAREGVGADYGDYYYYGMDVWGQGTTVTVSSASTKGPSVFPLAPSSKSTSGGTAALGCLVKDYFPEPVTVSWNSGALTSGVHTFPAVLQSSGLYSLSSVVTVPSSSLGTQTYICNVNHKPSDTKVDKKVEPKSCDKTHTCPPCPAPPVAGPSVFLFPPKPKDTLMISRTPEVTCVVVDVKHEDPEVKFNWYVDGVEVHNAKTKPREEEYNSTYRVVSVLTVLHQDWLNGKEYKCKVSNKALPAPIEKTISKAKGQPREPQVYTLPPSREEMTKNQVSLTCDVSGFYPSDIAVEWESDGQPENNYKTTPPVLDSDGSFFLYSKLTVDKSRWEQGDVFSCSVMHEALHNHYTQKSLSLSPGK
scFv-Fc: not shown
light: QSVLTQPASVSGSPGQSITISCTGTSSDVGGYNYVSWYQQHPGKAPKLMIYEVSNRPSGVSNRFSGSKSGNTASLTISGLQAEDEADYYCSSYTSSYTYVFGTGTKLTVLGQPKAAPSVTLFPPSSEELQANKATLVCLISDFYPGAVTVAWKADSSPVKAGVETTTPSKQSNNKYAASSYLSLTPEQWKSHRSYSCQVTHEGSTVEKTVAPTECS
notes: D01v2 is D01 with the degradation liabilities removed
Question: Does B8 bind [1]?
Answer: binds

B9: PSMA x CD28 bsAb with D01 PSMA binding domain and 1A7_H1_L1.71 CD28 binding domain (Platform X) (bispecific antibody)
heavy: B8 heavy with E99D
scFv-Fc: not shown
light: B8 light
Question: Does B9 bind [1]?
Answer: binds

B10: PSMA x CD28 bsAb with A10 PSMA binding domain and 1A7_H1_L1.71 CD28 binding domain (Platform X) (bispecific antibody)
heavy: not shown
scFv-Fc: not shown
light: SYELMQPPSVSVSPGQTARITCSGDALPKQYAYWYQQKPGQAPVLVIYKDSERPSGIPVRFSGSSSGTTVTLTITGVQAEDEADYYCQSADSSGTYVFGTGTKVTVLGQPKAAPSVTLFPPSSEELQANKATLVCLISDFYPGAVTVAWKADSSPVKAGVETTTPSKQSNNKYAASSYLSLTPEQWKSHRSYSCQVTHEGSTVEKTVAPTECS
Question: Which “EC50 (read off the curve)” value [5] does the source give for B10 here?
Answer: ~0.06 µg/mL

B11: XENP39233 PSMA (A10v2) x CD28 (96 nM) (bispecific antibody)
heavy: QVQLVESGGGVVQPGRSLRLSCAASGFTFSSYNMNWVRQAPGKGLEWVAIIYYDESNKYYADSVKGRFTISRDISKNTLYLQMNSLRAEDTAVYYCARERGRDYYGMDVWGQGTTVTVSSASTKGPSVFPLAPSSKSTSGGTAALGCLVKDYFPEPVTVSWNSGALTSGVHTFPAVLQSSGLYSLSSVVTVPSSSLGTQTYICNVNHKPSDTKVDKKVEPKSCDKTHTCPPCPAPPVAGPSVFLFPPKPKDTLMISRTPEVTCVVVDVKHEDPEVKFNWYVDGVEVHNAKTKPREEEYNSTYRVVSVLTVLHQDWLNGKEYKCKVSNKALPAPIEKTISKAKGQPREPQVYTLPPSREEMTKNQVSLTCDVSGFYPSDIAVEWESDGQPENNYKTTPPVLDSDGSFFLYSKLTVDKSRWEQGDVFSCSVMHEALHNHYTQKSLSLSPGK
scFv-Fc: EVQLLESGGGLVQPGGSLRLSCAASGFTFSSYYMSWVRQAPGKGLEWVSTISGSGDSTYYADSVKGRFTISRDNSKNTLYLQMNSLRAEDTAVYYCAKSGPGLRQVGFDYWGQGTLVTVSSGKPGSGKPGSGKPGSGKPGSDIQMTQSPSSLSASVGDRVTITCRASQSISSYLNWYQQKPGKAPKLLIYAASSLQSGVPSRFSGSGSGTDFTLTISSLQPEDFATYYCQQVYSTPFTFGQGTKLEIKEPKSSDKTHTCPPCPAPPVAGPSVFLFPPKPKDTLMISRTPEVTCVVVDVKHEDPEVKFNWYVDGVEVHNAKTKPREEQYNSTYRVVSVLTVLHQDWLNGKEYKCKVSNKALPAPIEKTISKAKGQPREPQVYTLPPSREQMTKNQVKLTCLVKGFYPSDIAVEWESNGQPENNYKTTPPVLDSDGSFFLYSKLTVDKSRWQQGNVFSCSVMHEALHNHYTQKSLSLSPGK
light: B10 light
notes: Member of group m19
Question: With B11 as the binder, how does the “EC50 (read off the curve)” value [6] read?
Answer: ~2 nM

B12: C28PB318.002 PSMA (A10v2) x CD28 (96 nM) (bispecific antibody)
scFv-Fc: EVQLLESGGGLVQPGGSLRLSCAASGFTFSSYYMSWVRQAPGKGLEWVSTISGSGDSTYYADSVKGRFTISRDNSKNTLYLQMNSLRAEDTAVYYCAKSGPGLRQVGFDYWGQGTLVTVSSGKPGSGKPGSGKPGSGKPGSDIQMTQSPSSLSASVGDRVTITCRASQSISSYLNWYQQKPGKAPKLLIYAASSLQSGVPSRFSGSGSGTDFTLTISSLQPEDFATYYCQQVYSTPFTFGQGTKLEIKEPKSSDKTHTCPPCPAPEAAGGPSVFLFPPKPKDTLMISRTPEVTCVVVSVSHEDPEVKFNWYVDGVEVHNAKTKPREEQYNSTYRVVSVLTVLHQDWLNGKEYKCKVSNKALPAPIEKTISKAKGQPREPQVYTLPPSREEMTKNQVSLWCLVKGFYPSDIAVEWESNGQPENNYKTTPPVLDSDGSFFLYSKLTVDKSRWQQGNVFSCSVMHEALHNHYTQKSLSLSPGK
heavy: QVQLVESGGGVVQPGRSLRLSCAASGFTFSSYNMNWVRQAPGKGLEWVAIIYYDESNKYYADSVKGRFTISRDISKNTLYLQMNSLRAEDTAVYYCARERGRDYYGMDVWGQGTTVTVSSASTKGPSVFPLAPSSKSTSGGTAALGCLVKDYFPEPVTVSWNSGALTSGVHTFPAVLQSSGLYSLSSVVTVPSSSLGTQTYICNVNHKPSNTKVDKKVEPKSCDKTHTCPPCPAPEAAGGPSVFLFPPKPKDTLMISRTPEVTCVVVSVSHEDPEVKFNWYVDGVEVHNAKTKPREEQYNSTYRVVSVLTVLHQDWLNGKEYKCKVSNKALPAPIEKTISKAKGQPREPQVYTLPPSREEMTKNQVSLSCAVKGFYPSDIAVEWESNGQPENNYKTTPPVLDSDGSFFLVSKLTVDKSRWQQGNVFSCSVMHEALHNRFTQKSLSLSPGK
light: B10 light
Question: B12 was tested. Which “EC50 (read off the curve)” value [6] did it give?
Answer: ~2 nM

B13: XENP38936 (bispecific antibody)
heavy: not shown
scFv-Fc: not shown
light: B10 light
notes: also called PSMA x CD28 180 nM
Question: B13 was tested. Which Kd [7] did it give?
Answer: 180 nM

Question: And the “EC50 (read off the curve)” value [6]?
Answer: ~2 nM

B14: C28PB294.002 PSMA (A10v2) x CD28 (37 nM) (bispecific antibody)
scFv-Fc: not shown
heavy: not shown
light: B10 light
Question: B14 was tested. Which “EC50 (read off the curve)” value [6] did it give?
Answer: ~3 nM

B15: XENP39234 PSMA (A10v2) x CD28 (37 nM) (bispecific antibody)
heavy: not shown
scFv-Fc: not shown
light: B10 light
notes: Member of group m19
Question: Which “EC50 (read off the curve)” value [6] does the source give for B15 here?
Answer: ~3 nM

B16: XENP40470 (bispecific antibody)
heavy: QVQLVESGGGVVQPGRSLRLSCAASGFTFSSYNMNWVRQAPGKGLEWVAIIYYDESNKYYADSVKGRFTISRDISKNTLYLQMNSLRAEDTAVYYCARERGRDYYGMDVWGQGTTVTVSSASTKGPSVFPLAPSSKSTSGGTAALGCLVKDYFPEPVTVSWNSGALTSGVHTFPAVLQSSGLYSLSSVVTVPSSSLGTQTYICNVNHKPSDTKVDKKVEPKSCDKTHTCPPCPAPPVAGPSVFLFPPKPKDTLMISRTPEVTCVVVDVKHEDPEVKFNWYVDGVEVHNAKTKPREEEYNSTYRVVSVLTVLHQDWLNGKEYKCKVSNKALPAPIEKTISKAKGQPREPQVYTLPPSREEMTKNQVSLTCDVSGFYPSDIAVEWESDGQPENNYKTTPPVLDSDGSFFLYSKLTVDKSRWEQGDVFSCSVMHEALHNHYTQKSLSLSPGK
scFv-Fc: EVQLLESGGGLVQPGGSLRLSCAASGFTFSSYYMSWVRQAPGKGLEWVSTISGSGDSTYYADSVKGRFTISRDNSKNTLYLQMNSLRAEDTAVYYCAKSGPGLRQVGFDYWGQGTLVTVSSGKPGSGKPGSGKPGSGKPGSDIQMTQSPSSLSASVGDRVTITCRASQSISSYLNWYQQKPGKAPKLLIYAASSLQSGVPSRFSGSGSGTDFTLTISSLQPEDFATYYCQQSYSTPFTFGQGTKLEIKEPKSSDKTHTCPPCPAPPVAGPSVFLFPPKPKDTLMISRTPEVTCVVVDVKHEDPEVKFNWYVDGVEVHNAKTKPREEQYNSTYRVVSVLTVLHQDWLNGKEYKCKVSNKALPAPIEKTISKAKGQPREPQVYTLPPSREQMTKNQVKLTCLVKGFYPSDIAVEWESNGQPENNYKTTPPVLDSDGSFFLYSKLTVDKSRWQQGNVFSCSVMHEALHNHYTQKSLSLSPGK
light: B10 light
notes: Assigned to the 600 nM domain by elimination, because XENP39231 is told to be 1000 nM
Question: With B16 as the binder, how does the Kd [8] read?
Answer: 600 nM

B17: XENP39231 (bispecific antibody)
heavy: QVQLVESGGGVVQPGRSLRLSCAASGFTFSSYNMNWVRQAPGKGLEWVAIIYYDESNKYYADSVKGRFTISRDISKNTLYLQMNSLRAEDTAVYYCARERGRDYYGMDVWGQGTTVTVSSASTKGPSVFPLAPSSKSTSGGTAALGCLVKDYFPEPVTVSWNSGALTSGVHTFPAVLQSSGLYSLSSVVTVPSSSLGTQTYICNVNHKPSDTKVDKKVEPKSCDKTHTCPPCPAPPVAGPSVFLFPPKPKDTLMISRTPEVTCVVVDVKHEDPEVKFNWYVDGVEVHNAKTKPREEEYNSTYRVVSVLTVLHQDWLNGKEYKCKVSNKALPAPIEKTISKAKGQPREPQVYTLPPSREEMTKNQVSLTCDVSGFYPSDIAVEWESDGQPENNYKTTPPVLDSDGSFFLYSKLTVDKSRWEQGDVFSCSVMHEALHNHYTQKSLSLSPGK
scFv-Fc: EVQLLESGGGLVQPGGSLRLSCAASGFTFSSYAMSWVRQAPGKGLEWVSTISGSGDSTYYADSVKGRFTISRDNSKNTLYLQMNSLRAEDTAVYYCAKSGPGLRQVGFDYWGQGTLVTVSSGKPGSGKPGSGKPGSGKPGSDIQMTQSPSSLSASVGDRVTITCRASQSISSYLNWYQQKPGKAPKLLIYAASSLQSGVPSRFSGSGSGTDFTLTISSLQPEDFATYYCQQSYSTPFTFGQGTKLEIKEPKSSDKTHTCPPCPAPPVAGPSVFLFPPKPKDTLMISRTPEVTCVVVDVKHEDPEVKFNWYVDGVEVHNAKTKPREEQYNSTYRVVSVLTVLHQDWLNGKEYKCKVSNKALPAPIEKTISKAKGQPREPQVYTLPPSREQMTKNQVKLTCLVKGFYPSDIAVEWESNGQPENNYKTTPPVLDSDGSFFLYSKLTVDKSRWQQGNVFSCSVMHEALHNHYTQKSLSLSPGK
light: B10 light
notes: also called PSMA x CD28 1 uM
Question: With B17 as the binder, how does the Kd [9] read?
Answer: 1000 nM

B18: C28PB330.002 PSMA (A10v2) x CD28 (180 nM) (bispecific antibody)
first monomer: not shown
second monomer: not shown
light chain: B10 light
Question: B18 was tested. Which “EC50 (read off the curve)” value [6] did it give?
Answer: ~3 nM
